These results are taken from patent CN111320694A.

In this test the target is GPC3蛋白 (Glypican 3 protein, recombinant) (UniProt P51654). Kind of test: sandwich ELISA: GPC3 polyclonal antibody coated, GPC3 protein titrated, 0.2μg/mL GN2-Luc as detector, luminescence. On the technique in general: In an ELISA, binding on a coated surface is turned into a signal by an enzyme label.
Sequence of UniProt P51654 (P51654 25-559 limits assumed): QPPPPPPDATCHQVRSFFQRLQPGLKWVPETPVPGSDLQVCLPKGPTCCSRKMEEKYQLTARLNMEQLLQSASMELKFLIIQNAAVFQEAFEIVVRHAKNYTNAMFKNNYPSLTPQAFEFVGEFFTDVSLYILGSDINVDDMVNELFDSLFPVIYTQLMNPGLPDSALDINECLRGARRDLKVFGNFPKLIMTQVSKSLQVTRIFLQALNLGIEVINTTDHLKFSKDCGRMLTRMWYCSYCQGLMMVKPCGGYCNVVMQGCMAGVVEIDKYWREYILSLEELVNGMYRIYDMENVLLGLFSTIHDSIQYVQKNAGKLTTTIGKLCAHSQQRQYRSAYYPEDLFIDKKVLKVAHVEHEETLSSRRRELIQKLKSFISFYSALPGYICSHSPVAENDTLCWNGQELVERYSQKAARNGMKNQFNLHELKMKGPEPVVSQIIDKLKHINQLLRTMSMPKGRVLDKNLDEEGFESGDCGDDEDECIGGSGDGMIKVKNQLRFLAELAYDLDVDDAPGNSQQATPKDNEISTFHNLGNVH

B1: 融合蛋白GN2-Luc (GN2-Nano-luciferase fusion protein) (protein, part only; not given: junction and purification tag, not shown: small tags and cut ends)
chain, part: QVQLVESGGGLVQPGGSLRLSCAASGFTLDAYAIGWFRQAPGKEREGVSYITSGTGTTLYADSVKGRFTISRDNAKNTVYLQMNSLKPEDTAVYFCTTLKRTTAGGWPIPGRIGGQGTQVTVSS
For the molecule B1, the EC20 (GPC3 concentration at 20% of the strongest luminescence) turned out to be 0.0539 µg/mL and the EC80 (GPC3 concentration at 80% of the strongest luminescence) was determined as 0.219 µg/mL.
